Test results reported in paper PMC3031671.

Molecular target: Fibronectin (FN) purified from human plasma (human)
Experiment: ELISA

Kd [nM] | Substance
20 | Full-length MMP-2^E404A (catalytically inactive, ligand-binding matrix metalloproteinase-2) (from UniProt P08253 30-660) (enzyme)
100 | Isolated recombinant hemopexin-like carboxyl-terminal domain of MMP-2 (PEX) (from UniProt P08253 446-660) (domain or fragment)
